We go through eleven molecules from patent publication US20210246195A1 (CZ BIOHUB SF, published 2021).

Changes are numbered by the printed parent chain. Where two headings read alike, the source gives them in different places. Some results are limits rather than exact numbers.

Test [1] concerns the target T1, BSA (UniProt P02769 25-607).
T1 construct: also called bovine serum albumin; immobilized BSA
Description: indirect ELISA, OD heat map. (In general: An ELISA detects its analyte on a solid surface through an enzyme-linked reagent.)

For test [2], the target named is T2, purified recombinant allergen Aspergillus fumigatus 1 (rAsp f 1) (Aspergillus fumigatus, UniProt P67875 28-176).
T2 sequence: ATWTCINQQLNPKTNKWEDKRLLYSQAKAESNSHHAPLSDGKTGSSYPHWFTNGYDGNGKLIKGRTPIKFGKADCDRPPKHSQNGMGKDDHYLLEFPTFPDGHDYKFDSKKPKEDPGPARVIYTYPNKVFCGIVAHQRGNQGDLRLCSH
Description: indirect ELISA (FIG. 19).

Test [3] deals with T1, BSA. Description: indirect ELISA, OD heat map. This is another data set of the same source.
The target in test [4] is T3, Ara h 3 (purified natural peanut allergen) (Arachis hypogaea).
T3 construct: mature; bought natural protein; also called natural Ara h 3; NA-AH3-1
Description: BLI, antibody on anti-human IgG Fc sensors, Ara h 3 as analyte, top 16 nM. A general note: In BLI a coated tip is dipped into the sample, and binding shifts an interference pattern.

In test [5] the target is T4, Ara h 1 (purified natural peanut allergen) (Arachis hypogaea, UniProt P43238 26-626).
T4 construct: mature; bought natural protein; also called natural Ara h 1; NA-AH1-1
T4 sequence (looked up): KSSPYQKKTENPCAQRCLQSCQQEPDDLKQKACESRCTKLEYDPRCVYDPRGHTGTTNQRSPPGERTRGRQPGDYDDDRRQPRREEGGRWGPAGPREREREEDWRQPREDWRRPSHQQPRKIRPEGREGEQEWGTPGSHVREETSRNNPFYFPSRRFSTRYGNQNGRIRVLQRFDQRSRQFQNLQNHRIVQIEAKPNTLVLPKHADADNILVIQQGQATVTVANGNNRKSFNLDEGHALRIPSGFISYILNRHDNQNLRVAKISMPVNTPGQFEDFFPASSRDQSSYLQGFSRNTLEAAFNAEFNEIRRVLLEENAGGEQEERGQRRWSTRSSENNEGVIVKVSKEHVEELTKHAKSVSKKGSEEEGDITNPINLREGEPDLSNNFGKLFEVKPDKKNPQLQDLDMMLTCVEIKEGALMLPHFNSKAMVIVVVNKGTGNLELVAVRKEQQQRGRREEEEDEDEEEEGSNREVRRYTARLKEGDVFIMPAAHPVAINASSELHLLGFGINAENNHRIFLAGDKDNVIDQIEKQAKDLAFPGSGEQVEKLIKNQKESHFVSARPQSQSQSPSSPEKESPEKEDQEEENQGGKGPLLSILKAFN
Description: indirect ELISA, OD heat map.

The target of test [6] is T3, Ara h 3 (purified natural peanut …). Description: BLI, antibody on anti-human IgG Fc sensors, Ara h 3 as analyte, top 64 nM.
Test [7] has the same target. Description: BLI, antibody on anti-human IgG Fc sensors, Ara h 3 as analyte, top 32 nM.
For test [8] the target is unchanged. Description: BLI, antibody on anti-human IgG Fc sensors, Ara h 3 as analyte, top 512 nM.
Test [9] deals with T4, Ara h 1 (purified natural peanut …). Description: indirect ELISA.
Test [10] addresses T2, purified recombinant allergen …. Description: indirect ELISA, OD heat map.
In test [11] the target is T3, Ara h 3 (purified natural peanut …). Description: BLI, scatter plot of KDs; the diamond lies on the axis line labelled >10^-7.
Test [12] has the same target. Description: BLI, antibody on anti-human IgG Fc sensors, Ara h 3 as analyte, top 128 nM.

T1 sequence (P02769 25-607 limits assumed): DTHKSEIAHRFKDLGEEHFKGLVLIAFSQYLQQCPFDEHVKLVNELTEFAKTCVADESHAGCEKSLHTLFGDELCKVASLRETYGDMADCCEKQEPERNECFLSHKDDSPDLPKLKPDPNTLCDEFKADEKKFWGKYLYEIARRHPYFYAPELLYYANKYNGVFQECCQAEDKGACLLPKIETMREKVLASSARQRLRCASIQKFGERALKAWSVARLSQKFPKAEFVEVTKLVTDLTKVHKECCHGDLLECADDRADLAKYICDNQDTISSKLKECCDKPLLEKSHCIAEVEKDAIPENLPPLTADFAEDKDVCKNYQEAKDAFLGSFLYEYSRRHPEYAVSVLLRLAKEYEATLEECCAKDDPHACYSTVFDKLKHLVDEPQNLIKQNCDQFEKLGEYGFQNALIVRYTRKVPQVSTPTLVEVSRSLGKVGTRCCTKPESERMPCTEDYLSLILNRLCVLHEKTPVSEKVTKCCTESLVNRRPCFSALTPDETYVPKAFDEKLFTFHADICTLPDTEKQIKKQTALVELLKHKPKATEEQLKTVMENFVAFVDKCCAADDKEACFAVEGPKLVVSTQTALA

B1: 1003320107_C5 (antibody, V domains shown)
VH: QVQLQESGLGLVKPSGTLSLTCAVSGGPMNSSYWWSWVRQSPGGGLEWIGQISHYTNTKYNPSFKNRVSISIDKSKNEFSLRLTYVTGADTGVYYCVGERDWKDPNWFDPWGQGRLVTVSS
VL: QSVLTQPPSVSGAPGQRVTISCTGSNSNIGAGQDVHWYQHFPGTAPKLVIYGNSNRPSGVPDRFSGSKSGTSASLAISGLQADDEADYYCQSYDKSLSSSLFGGGTKLTVL
notes: also called Clone 1003320107_C5
On to B1, for which the binding result in [1] is “no binding (tested: 2 ng/µL)”; in test [2] it was “binds”.

B2: PA13P1H08 (antibody, human IgG1, V domains shown)
VH: QVQLVNSGGGVVQPGRSLRLSCVASGFTFSTFGIHWVRQAPGKGLEWVAVISNDGEKSESADSVKGRFTPSRDNSKNTVYLQMNNLRVEDTAVYYCAKVLDYSRYSYYYGMDVWGQGTTVIVSS
VL: EIVLTQSPGTLSLSPGGRGTLSCRTSQTINNAHLAWYQHKPGQAPRLLIYGSSERATGVPDRFSGSGSGSDFTLTISSLEAEDFAVYYCQHYGRSPPYTFGPGTKLDIK
notes: human IgG1, kappa; also called Clone PA13P1H08; N-N
B2: the binding result in [3] is on record as “no binding (tested: 2 ng/µL)”. Further, in test [4], the Kd stood at 0.3 nM.

B3: PA13P1H08 variant with native heavy chain and light chain swapped with another kappa light chain (antibody, human IgG1, V domains shown)
VH: B2 VH
VL: EIVLTQSPATLSLSPGERATLSCRASQSVSSYLAWYQQKPGQAPRLLIYDASNRATGIPARFSGSGSGTDFTLTISSLEPEDFAVYYCQQRSNWPPGFTFGPGTKVDIK
notes: human IgG1, kappa
Turning to B3, the binding result in test [3] and in test [5] was “no binding (tested: 2 ng/µL)” each time.

B4: PA13P1H08 variant N-R (antibody, V domains shown)
VH: B2 VH
VL: not shown
notes: human IgG1, kappa; also called native heavy chain, reverted light chain
As for B4, the binding result in test [3] and in test [5] was “no binding (tested: 2 ng/µL)” throughout. For the same molecule, the Kd in test [6] is 7.4 nM.

B5: PA13P1H08 variant R-N (antibody, human IgG1, V domains shown)
VH: QVQLVESGGGVVQPGRSLRLSCAASGFTFSSYGMHWVRQAPGKGLEWVAVISYDGSNKYYADSVKGRFTISRDNSKNTLYLQMNSLRAEDTAVYYCAKVLDYSNYYYYYGMDVWGQGTTVTVSS
VL: B2 VL
notes: human IgG1, kappa; also called reverted heavy chain, native light chain
Turning to B5, the binding result in test [3] is on record as “no binding (tested: 2 ng/µL)”. The molecule also returned a Kd in [7] of 0.89 nM.

B6: PA13P1H08 variant rFWRs-N (antibody, human IgG1, V domains shown)
VH: B5 VH with S31T, Y32F, Y53N, S56E, N57K, K58S, N104R, Y106S
VL: B2 VL
notes: human IgG1, kappa; also called heavy chain framework regions reverted
B6: the binding result in [3] is on record as “no binding (tested: 2 ng/µL)”. The molecule further returned a dissociation constant Kd in [7] of 3.2 nM.

B7: PA15P1D05 (antibody, human IgG1, V domains shown)
VH: QVHLVESGGGVVQPGRSLGLSCVASGFTFNYYAIHWVRQAPGKGLEWVAVVSFDGNIIYYADSVKGRFNISRDNSKNTVNLQMNSLRPDDTAVYYCVRDGEYCSGGNCYWGDFDHWGQGSLVTVSP
VL: EIVLTQSPATLSLSPGERATLSCRASQSISSEYLTWFQQKPGQAPRLLIYGAFNRATGIPDRFSGSGSGTDFTLTISSLEPEDFAVYYCQQYANWWTFGQGTKVEIK
notes: human IgG1; also called CF3 IgE PB antibody
In turn, B7 showed a Kd in [8] of 2 nM. Also, the binding result in test [9] was “no binding”.

B8: PA15P1D12 (antibody, human IgG1, V domains shown)
VH: B7 VH with V23A, P88A, H115Y, S120T
VL: B7 VL with A9G
notes: human IgG1; also called CF3 IgG4 PB antibody
Turning to B8, the Kd in [8] was 1.1 nM. Moreover, in [9], the binding result is listed as “no binding”.

B9: 1003320107_F3 (antibody, V domains shown)
VH: QVQLQESGPGLVKPSETLSLSCNVSGGSIRGHYWSWIRQSPGKRLEWLGYIYQSGYTKYNPSLKSRVSISLDTSKNKFSLNLKSVTTADTAVYYCAGRVAERGGDQFDFWGQGTLVTVSS
VL: SYELTQSPSLSVSPGQTASITCSGENLGEKHASWYQQKSGQSPVLVIYQDTKRPAGIPERFSGSNSGSTATLTISGTQPMDEADYFCQAWDANTANVIFGGGTMLTVL
notes: also called Clone 1003320107_F3
For the molecule B9, the values for the binding result in test [1] and in test [2] were “no binding (tested: 2 ng/µL)” and “binds”, respectively.

B10: 1003320107_F8 (antibody, V domains shown)
VH: EVQLVESGGGLVQPGGSLKLSCAASGFTFSGSTIHWVRQTSGKGLEWVGRIGSKATSYATAYAASVKGRFTISRDDSKNTAYLQMNSLKTEDTAVYFCTRRYYDTTKSVLVVSDSWGQGTLVTVSS
VL: SYELTQPPSMSVSPGQTARITCSGDVLAKQFAYWYQQKPGQAPVLVIYKDSERPSGIPERFSGSSSGTIITLTISGVQAEDEADYYCQSADSSGTSWVFGGGTKLTVL
notes: also called Clone 1003320107_F8
With B10, the binding result in [10] and in [1] was “no binding (tested: 2 ng/µL)” throughout.

B11: PA13P1H08 variant R-R (antibody, V domains shown)
VH: B5 VH
VL: not shown
notes: human IgG1, kappa; also called both chains reverted to the inferred naive rearrangement
Regarding B11, the Kd in test [11] and in test [12] was above 100 nM throughout. Moreover, the binding result in test [3] and in test [5] was “no binding (tested: 2 ng/µL)” throughout.

By Kd is commonly meant the constant that tells how readily two partners part at equilibrium. A high value points to weaker binding.
